# Reference: the nanobody polyreactivity screen of Harvey et al. (2022)
# Assay: yeast display, Sf9 membrane polyspecificity reagent, FACS + sequencing; frameworks hold sequencing errors
# Outline: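 Nanobodies came from a synthetic yeast display library in Saccharomyces cerevisiae BJ5465, induced with galactose for 36–48 hours and stained for 1 hour at 4 °C with 10% biotinylated, detergent-solubilized Sf9 membrane reagent. Cells were enriched on streptavidin microbeads and then FACS-sorted, with low and high (top ~1%) gates set on anti-HA fluorescence for expression and streptavidin fluorescence for reagent binding. Each polyreactivity label reflects the gate a clone came from. Genes were amplified by colony PCR, sequenced by MiSeq 2 × 250 and filtered by CDR length.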
row,Sequence,polyreactivity (PSR sort gate)
1,QVQLVESGGGLVQAGGSLRLSCAASGLTFQPNVMGWYRQATGKERELVAAISVRTTRTYYADSVKGRFTISRDNAKNTVYLQMNSLKPEDTAVYYCNTDISRNYYWALYGYWGQGTQVTVSS,low polyreactivity
2,QVQLVESGGGLVQAGGSLRLSCAASGLTFQWYTMGWYRQAPGKERELVAAISSRGGSTYYADSVKGRFTISRDNAKNTVYLQMNSLKPEDTAVYYCAVRLRWYFFLMDYWGQGTQVTVSS,high polyreactivity
3,QVQLVESGGGLVQAGGSLRLSCAASGLTFQYYVMGSYRQAPGKERELVAAISSGGSTYYADSVKGRFTISRDNAKNTVYLQMNSLKPEDTAVYYCAAEAGYAYPLWPYTFPFEYWGQGTQVTVSS,low polyreactivity
4,QVQLVESGGGLVQAGGSLRLSCAASGLTFRKYAMGWYRPAPGKEREWVAAITRGGSTNYADSVKGRFTISRDNAKNTVYLQMNSLKPEDTAVYYCAAQYTYRFPYPGYATTHDYWGQGTQVTVSS,high polyreactivity
5,QVQLVESGGGLVQAGGSLRLSCAASGLTFRPYAMGWYRPAPGKERELVAAISTTGGSTYYADSVKGRFTISRDNAKNTVYLQMNSLKPEDTAVYYCAAPTSQRRVLSYRPYGYWGQGTQVTVSS,high polyreactivity
6,QVQLVESGGGLVQAGGSLRLSCAASGLTFRQYAMGWYRQAPGKERELVAAIDTGASTNYADSVKGRFTISRDNAKNTVYLQMNSLKPEDTAGYYCNAELWYGPDELTGDYWGQGTQVTVSS,low polyreactivity
7,QVQLVESGGGLVQAGGSLRLSCAASGLTFRWYAMGWYRQAPGKERELVAAISSTGRTNYADSVKGRFTISRDNAKNTVYLQMNSLKPEDTAVYYCNKTQEFVHKYELDYWGQGTQVTVSS,low polyreactivity
8,QVQLVESGGGLVQAGGSLRLSCAASGLTFRYYSMGWYRQAPGKERELVAAISRRSGSTYYADSVKGRFTISGDNAKNTVYLQMNSLKPEDTAVYYCNADSTITGNLKRYDYWGQGTQVTVSS,high polyreactivity
9,QVQLVESGGGLVQAGGSLRLSCAASGLTFSFNAMGWYRQAPGKEREFVAAISWSGGSTYYADSVKGRFTISRDNAKITVYLQMNSLKPEDTAVYYCAAESRITRYRHTRYYYWGQGTQVTVSS,high polyreactivity
10,QVQLVESGGGLVQAGGSLRLSCAASGLTFSLNAMGWYRPAPGKERELVAAIRGSGGSTYYADSVKGRFTISRDNAKNTVYLQMNSLKPEDTAVYYCAASPKRVLRESGVYWGQGTQVTVSS,high polyreactivity
11,QVQLVESGGGLVQAGGSLRLSCAASGLTFSLNAMGWYRQAPGKERELVAAISFSGGSTYYADSVKGRFTISRDNAKNTVYLQMNSLKPEDTAVYYCAVRKRVGRGRYGYWGQGTQVTVSS,high polyreactivity
12,QVQLVESGGGLVQAGGSLRLSCAASGLTFSLYAMGWYRQAHGKERELVAAISWTGGSTYYADSVKGRFTISRDNAKNTVYLQMNSLKPEDTAVYYCNARYTLFARYGYDYWGQGTQVTVSS,low polyreactivity
13,QVQLVESGGGLVQAGGSLRLSCAASGLTFSRNAMGWYRQAPGKEWELVAAISGSGGSTYYADSVKGRFTISRDNAKYTVYLQMNSLKPEDTAVYYCAKVSRSKQKFDYWGQGTQVTVSS,high polyreactivity
14,QVQLVESGGGLVQAGGSLRLSCAASGLTFSRYAMGWYRQAPGKERELVAAITSIGGSTYYADSVKGRFTISRDNAKNTVYLQMNSLKPEDTAVYYCRAFFRRDYWGQGTQVNVSS,high polyreactivity
15,QVQLVESGGGLVQAGGSLRLSCAASGLTFSSNAMGWSRQAPGKERELVAVITNGGSTNYADSVKGRFTISRDNAKNTVYLQMNSLKPEDTAVYYCAKDGGPAQDIGMDYWGQGTQVTVSS,low polyreactivity
16,QVQLVESGGGLVQAGGSLRLSCAASGLTFSVYAMGWSRQAPGKERELVASITRSGGSTYYADSVKGRFTISRDNAKNTVYLQMNSLKPEDTADYYCNADKYYGFDYWGQGTQVTVSS,high polyreactivity
17,QVQLVESGGGLVQAGGSLRLSCAASGLTFSYYAMGWYRQAPGKERELVAAIDYSGGTTYADSVKGRFTISRDNAKNTVYLQMNSLKPEDTAVYYCAREWYQYSPYHRFDYWGQGTQVTVSS,high polyreactivity
18,QVQLVESGGGLVQAGGSLRLSCAASGLTFSYYTMGWYRPAPGKERELVAAITSSSGRTYYADSVKGRFSISRDNAKNTVYLQLNSLKPEDTAVYYCAADRWYREYDYWGLGTQVTVSS,low polyreactivity
19,QVQLVESGGGLVQAGGSLRLSCAASGLTFTGNAMGWYRQAPGKEREFVAAIRWSAGSTYYADSVKGRFTISRDNAKNTVYLQMNSLKPEDTAVYYCNAALNVSGHYPNDYWGQGTQVNVSS,low polyreactivity
20,QVQLVESGGGLVQAGGSLRLSCAASGLTFTKNVMGWYRQAPGKERELVAVISRSGGSTYYADSVKGRFTISRDNAKNTVYLQMNSLKPEDTAVYYCNVKGPGPSRGNYWGQGTQVTVSS,low polyreactivity
21,QVQLVESGGGLVQAGGSLRLSCAASGLTFTPNAMGWYRQAPGKEREFVAAITWRGGRTYYADSVKGRFTISRDNAKNTVYLQMNSLKPEDTAVYYCAVTYRPTYQLDYWGQGTQVTVSS,high polyreactivity
22,QVQLVESGGGLVQAGGSLRLSCAASGLTFTRYAMGWYIQAPGKEREMVAAISKNGGSTYYADSVKGRFTISRDNAKNTVYLQMNSLKPEDTAVYYCAARRSTSYPAGYDYRGQGTQVTVSS,high polyreactivity

row,Sequence,polyreactivity (PSR sort gate)
1,QVQLVESGGGLVQAGGSLRLSCAASGLTFTSYAMGWYRQAPGKERELVAAIDWSGGRTYYADSVKGRFTISRDNAKNTVYLQMNSLKPEDTAVYYCAAYSRNRSLRFNYWGQGTQVTVSS,high polyreactivity
2,QVQLVESGGGLVQAGGSLRLSCAASGLTFTSYAMGWYRQAPGKERELVAAITAGGVSTYYADSEKGRFTISRDNAKNTVYLQMNSLKPEDTAVYYCAVDPPYSNPITINEDYWGQGTQVTVSS,low polyreactivity
3,QVQLVESGGGLVQAGGSLRLSCAASGLTFTTYTMGWYRQAPGKERELVAAISSRGGSTYYADSVKGRFTISRDNAKNTVYLQMNRLKPEDTAVYYCNAPRPHRMDWGQGTQVTVSS,high polyreactivity
4,QVQLVESGGGLVQAGGSLRLSCAASGLTFTTYTMGWYRQAPGKERELVAAISSRGGSTYYADSVKGRFTISRDNAKNTVYLQMNSLKPEDTAVYYFNAPRPHRMDWGQGTQVTVSS,high polyreactivity
5,QVQLVESGGGLVQAGGSLRLSCAASGLTFVFYAMGWYRQAPGKETELVAAISSSGGSTNYADSVKGRFTISRDNEKNTVYLQMKSLKPEDTAVYYCAATPYYSQYDYWGQGTQVTVSS,high polyreactivity
6,QVQLVESGGGLVQAGGSLRLSCAASGLTFVNYAMGWYRQAPGKERELVATISKTGGSTYYADSVKGRFTISRDNAKNTVYLQMNSLKPEDTAVYYCAVDAFYYKWYDYWGQGTQVTVSS,high polyreactivity
7,QVQLVESGGGLVQAGGSLRLSCAASGLTFVPYAMGWSRQAPGNERELFAAITWSGGSTYYADSVKGRFTISRDNAKNTVYLQMNSLKQEDTAVYYCAADFLLSTSTEYYYWGHGTQVTVSS,high polyreactivity
8,QVQLVESGGGLVQAGGSLRLSCAASGLTFVYYAMGWYRQAPGKERELVAAISSGGRTYYADSVKGRFTISRDNAKNTVYLQMNSLKPEDTGVYYCAAYGGTHYTYRYDYWGQGTQVNVSS,high polyreactivity
9,QVQLVESGGGLVQAGGSLRLSCAASGLTFWDYAMGWYRQAPGKERELVAGINTRGTSTYYADSVKGRFTISRDNAKNTVYLQMNSLKPEDTAVYYCAAEFFGYWYGIQYDYWGQGTQVTVSS,high polyreactivity
10,QVQLVESGGGLVQAGGSLRLSCAASGLTFWWYAMGWYRQAPGKERELVAAISSSGGSTYYADSVKGRFTISRDIAKNTVYLQMNSLKPEDTAVYYCAVASWDNYWDPYGYWGQGTQVTVSS,low polyreactivity
11,QVQLVESGGGLVQAGGSLRLSCAASGLTFWWYAMGWYRQAPGKQRELVAGITGGGSTSYADSVKGRFTISRDNAKNTVYLQMNSLKPEDTAVYYCAASPYNGQRTWYKYFFLGDYWGQGTQVTVSS,high polyreactivity
12,QVQLVESGGGLVQAGGSLRLSCAASGLTFWYYVMGWYRQAPGKERELVAAINIGGSTKYAYSVKGRFTISRDNAKNTVYLQMNSLKPEDTAVYYCAAQYYYTGTRSIRSFDYWGQGTQVTVSS,low polyreactivity
13,QVQLVESGGGLVQAGGSLRLSCAASGLTFYAYAMGWYRQAPGKERELVAAISWTGGRTYYADSVKGRFTISRDNAKNTVYLQMNSLKPEDTAVYYCAAEVFTTGSFRRYDYWGQGTQVTVSS,high polyreactivity
14,QVQLVESGGGLVQAGGSLRLSCAASGLTFYGNAMGWYRQAPGKERELVAAISSSGGTTYYADSVKGRFTISRDNAKNTVYLQMNSLKPEDTAVYYCAARPSGGYESTRTRDYWGQGTQVTVSS,low polyreactivity
15,QVQLVESGGGLVQAGGSLRLSCAASGLTFYGYGMGWYRQAPGKERELVASITSGGNTYYADSVKGRFTISRDNAKNTVYLQMNSLKPEDTAVYYCAVTAIALYYSSGYYWGQGTQVTVSS,low polyreactivity
16,QVQLVESGGGLVQAGGSLRLSCAASGLTFYHYDMGWYRQAPGKERELVAAINFSAGITYYADSVKGRFTISRDNAKNTVYLQMNSLKPEDTAVYYCAAEPEWWWRGYGYWGQGTQVTVSS,low polyreactivity
17,QVQLVESGGGLVQAGGSLRLSCAASGLTFYLYAMGWYRQAPGKERELVAAITSAGITYADSVKGRFTISRDNAKNTVYLQMNSLKPEDTAVYYCASSIDCGKCLGRRYDYWGQGSQVTVSS,low polyreactivity
18,QVQLVESGGGLVQAGGSLRLSCAASGLTFYNNAMGWYRQAPGKERELVARISSGGSTYYADSVKGRFTISRDNAKNTVYLQMNSLKPEDTADYYCAAGRGYWWWYGYDYWGQGTQVTVSS,low polyreactivity
19,QVQLVESGGGLVQAGGSLRLSCAASGLTFYQNAMGWYRQAPGKERELVAAISSIGGTYYADSVKGRFTISRDNAKNTVYLQMNSLKPEDTAVYYCAKRSRYPYYPYGYWGQGTQVTVSS,high polyreactivity
20,QVQLVESGGGLVQAGGSLRLSCAASGLTFYQYAMGWYRQAPGKERELVAGITSGGSTKYADSVKGRFTISRDNAKNTVYLQMNSLKPEDTAVYYCAARFYAFRKGYYYWGQGTQVTVSS,high polyreactivity
21,QVQLVESGGGLVQAGGSLRLSCAASGLTFYQYAMGWYRQATGKETELVAAITSAGITYADSVKGRFTISRDNAKNTVYLQMNSLKPEDTAVYYCAKDDYFSYGYVEFDYWGQGTQVTVSS,low polyreactivity
